According to article PMC5636811, “High-fidelity DNA replication in Mycobacterium tuberculosis relies on a trinuclear zinc center”:

Target: DnaE1 (replicative DNA polymerase);β-clamp (Mycobacterium …, UniProt P9WNT7;P9WNU1 1-1184;1-402, |)
Experiment: cryo-EM 2D class average
Conditions: protein: recombinant;recombinant; tags: His tag cleaved with HRV 3C protease;; copies: 1;2

DnaE1 (replicative DNA polymerase);β-clamp, sequence (P9WNT7 whole entry, chain 1 of 2): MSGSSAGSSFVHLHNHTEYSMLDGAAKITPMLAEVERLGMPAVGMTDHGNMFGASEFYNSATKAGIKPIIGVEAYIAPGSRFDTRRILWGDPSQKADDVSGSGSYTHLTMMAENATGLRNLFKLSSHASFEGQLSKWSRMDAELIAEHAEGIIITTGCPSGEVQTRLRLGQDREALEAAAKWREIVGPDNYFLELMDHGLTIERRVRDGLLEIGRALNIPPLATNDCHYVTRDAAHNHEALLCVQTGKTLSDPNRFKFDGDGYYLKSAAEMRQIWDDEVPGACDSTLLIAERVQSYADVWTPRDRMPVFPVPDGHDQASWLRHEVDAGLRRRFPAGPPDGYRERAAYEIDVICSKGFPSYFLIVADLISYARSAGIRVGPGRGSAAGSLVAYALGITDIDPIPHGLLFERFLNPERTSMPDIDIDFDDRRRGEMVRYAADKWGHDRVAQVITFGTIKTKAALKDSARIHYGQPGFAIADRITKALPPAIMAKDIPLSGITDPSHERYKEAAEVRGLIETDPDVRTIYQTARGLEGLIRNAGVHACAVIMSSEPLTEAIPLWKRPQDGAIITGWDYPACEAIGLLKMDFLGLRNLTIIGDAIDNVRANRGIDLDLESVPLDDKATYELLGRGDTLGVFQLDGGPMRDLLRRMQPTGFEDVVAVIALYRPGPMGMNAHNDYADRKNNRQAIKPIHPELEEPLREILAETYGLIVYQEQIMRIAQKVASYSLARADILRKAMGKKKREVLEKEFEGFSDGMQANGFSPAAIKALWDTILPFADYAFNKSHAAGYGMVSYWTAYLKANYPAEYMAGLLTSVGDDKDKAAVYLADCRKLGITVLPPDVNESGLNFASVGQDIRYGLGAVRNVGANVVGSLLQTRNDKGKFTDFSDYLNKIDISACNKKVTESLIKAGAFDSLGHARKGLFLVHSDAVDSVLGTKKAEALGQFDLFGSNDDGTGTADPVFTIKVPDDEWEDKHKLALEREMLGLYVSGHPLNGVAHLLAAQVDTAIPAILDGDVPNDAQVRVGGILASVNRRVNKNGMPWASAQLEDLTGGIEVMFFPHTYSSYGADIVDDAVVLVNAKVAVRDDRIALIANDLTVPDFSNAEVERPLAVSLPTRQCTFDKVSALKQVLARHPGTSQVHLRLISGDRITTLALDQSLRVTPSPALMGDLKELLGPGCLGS
DnaE1 (replicative DNA polymerase);β-clamp, sequence (P9WNU1 whole entry, chain 2 of 2): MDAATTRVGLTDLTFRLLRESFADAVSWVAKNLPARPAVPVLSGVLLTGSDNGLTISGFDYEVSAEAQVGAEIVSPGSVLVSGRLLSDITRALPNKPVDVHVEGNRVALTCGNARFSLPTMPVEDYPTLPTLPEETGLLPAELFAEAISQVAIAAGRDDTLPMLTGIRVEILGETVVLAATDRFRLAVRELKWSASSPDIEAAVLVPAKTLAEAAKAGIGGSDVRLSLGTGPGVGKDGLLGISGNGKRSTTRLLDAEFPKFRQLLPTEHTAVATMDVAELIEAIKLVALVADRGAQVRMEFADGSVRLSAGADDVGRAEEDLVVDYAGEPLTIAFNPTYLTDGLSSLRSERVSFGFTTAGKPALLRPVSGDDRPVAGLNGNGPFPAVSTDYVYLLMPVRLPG

B1: mismatched primer-template cryo-EM substrate (dsDNA)
DNA 1: CCCCTCAGGAGTCCTTCGTCCTAGTACTACTCC
DNA 2: GGAGTAGTACTAGGACGAAGGACGT
modifications: phosphorothioate between last two nt of primer (GsT)
binding result: binds
